Reference: patent publication US20240043559A1 (SHANGHAI HENLIUS BIOTECH, published 2024)
Values belong to the molecule of their own block, whether it stands above or below them.

Experiments:
[1] = target: human GPC3 expressed endogenously on hepatoma cells (HepG2, Hep3B) (human) (UniProt P51654); assay: flow cytometry on HepG2 cells (endogenous GPC3)
[2] = target: human GPC3 expressed endogenously on hepatoma cells (HepG2, Hep3B) (human) (UniProt P51654); assay: flow cytometry on Hep3B cells (endogenous GPC3)
[3] = target: recombinant human GPC3 protein (human) (UniProt P51654); assay: ELISA on plate-coated human GPC3
[4] = target: T1, human GPC3 expressed endogenously on hepatoma cells (HepG2, Hep3B) (human, UniProt P51654 25-554); assay: flow cytometry on HepG2 cells (endogenous GPC3)
T1 construct: also called GPC3 on HepG2; GPC3 on Hep3B
T1 sequence (P51654 other isoform, or with tags, fused parts or gaps limits assumed, form in doubt): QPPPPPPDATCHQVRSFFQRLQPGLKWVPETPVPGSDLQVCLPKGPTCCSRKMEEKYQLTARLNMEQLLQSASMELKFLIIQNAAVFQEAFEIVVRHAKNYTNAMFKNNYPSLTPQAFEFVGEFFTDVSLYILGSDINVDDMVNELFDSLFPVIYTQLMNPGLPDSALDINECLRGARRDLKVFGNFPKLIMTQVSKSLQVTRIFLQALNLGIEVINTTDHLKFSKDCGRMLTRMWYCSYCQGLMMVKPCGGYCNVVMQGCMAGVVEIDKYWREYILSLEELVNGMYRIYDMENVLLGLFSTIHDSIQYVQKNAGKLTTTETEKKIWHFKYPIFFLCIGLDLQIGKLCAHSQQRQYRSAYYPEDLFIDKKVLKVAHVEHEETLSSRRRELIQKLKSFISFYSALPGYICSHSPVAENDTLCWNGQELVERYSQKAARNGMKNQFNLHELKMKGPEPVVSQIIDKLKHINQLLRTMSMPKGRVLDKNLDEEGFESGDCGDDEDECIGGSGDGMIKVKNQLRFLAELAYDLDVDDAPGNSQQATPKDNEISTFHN

human GPC3 expressed endogenously on hepatoma cells (HepG2, Hep3B) (human), sequence (P51654 other isoform, or with tags, fused parts or gaps limits assumed, form in doubt): as above
recombinant human GPC3 protein (human), sequence (P51654 other isoform, or with tags, fused parts or gaps limits assumed, form in doubt): as above

EC50 (read off the curve) [1]: 2 nM | EC50 (read off the curve) [2]: 2 nM | EC50 (read off the curve) [3]: 0.02 µg/mL
Molecule: HN3 VHH-Fc (Fc fusion)

EC50 (read off the curve) [4]: ~0.3 nM
B1: 1B01 llama-human chimeric bivalent VHH-Fc (Fc fusion)
chain: QVQLQESGGGLVQAGGSLRLSCAAVGLPFSNYAMGWFRQAPGEEREFVSAVSANGGNEYYADSVKDRFTISRDNAKNTVYLRMLSLKLEDTAIYYCATVRRRGGTFTVGSYRGQGTQVTVSS
notes: also called Clone 1B01; 1B01 llama VHH; not shown: human IgG1 Fc fused to the C-terminal of the VHH
